The DeepSol protein solubility set

Assay: soluble on expression in E. coli; label from the status in PepcDB or PDB records

Sequence | soluble on expression in E. coli
MGSDKIHHHHHHMNNKGKLAILFIDALPYFKSRNIGQILNLYRLIPGLGYSVNQHYELLYGKTPDDVGFFGEWSLGCSTKFDTIKFRFHKTIDSILWKLKLNLIRKGYRKIILRLEDMIPLGRRKYFLRKGTYAFRELAKEGFILYNTQFRGYIEELDRTLPRNEEKRMETMFNKMFNIAKNTDHPLLFTINIIDHIGHKYGPESPEYDYFLDLFAKKLLDLLIFLKENGFHVILFSDHGMSPYKAKVNLSDFEHYFGKFFGKYIVYFYDSLYFRAWIFDSFLYLEIEEFLNKLPGKILSSNDRKKFGVVHEEHGHVIFVLNEGFTFHPNYFGYSVMKGYHGYLPEFERQHGIAAFSRAFKIDNLFQGNPPKYLNSIDFSRIIKHILEANRNV | not soluble
MGSDKIHHHHHHMALRSMDELRQQAQGALSLNIAFIGVVNGLFSTLHALGNADSAALAAATGMDTGYVLRWCDAAYAFGWLELTDNEQWRLSEDGDRMRPEAENSRVGVAVGAVLSAHMAERAAGLMRTGERPGEKVLAERETILPWFGLMLENNFRKTFEEKICPTVPIFAEVDARGGLAVDLGCGNGWYLRALAARCGHLHGLGLDGFAENIRQATEKAQSEGIADRLHFDEGDIHQFSLPEPADLIAMNRSLHHVWENRGEIFQRLHASLKPEGAIVIWEPAWPDDHRVLREPPLRGMAFQNLTEHVQGNHFLHPEEIATALSEAGLHPEIFPFGSDVVVVGRV | not soluble
MAPDDTVNTLFQVYKTISFWKVLKNTLVIEFGRFFPWMGGKRKIYRVCLGMEIGEKTAIAYKVMPDLFFPEKILIGENSIIGYHTTILTHEYLLSEYRVGEVVIGRDVMVGANVTILPGTVIGDGAVIAAGAVVSVDVPAGSFAYGNPLIIKEKATLTLEHHHHHH | soluble
MAHHHHHHMERRSEWVASLRSTLPQFSKRSAAPLERGNAAAILGPAPRRTLDKALSSHNTTSSLLLPSEWCEQATQRLITTLHGIVPPLQVQQTDYFLCSLIHPSYVQASTMRCESEALRRRVQQELRRTVCMPLELTMTGSKSLRLLRELTHYVEQGAAAAATSARARATLPAAPVAGRSEARDPSYGPSSWSSYPLDASWPELHSADSTAFVQAFQRAGLDSLVLYDKSFFAASSTLTDNISGAGSAEVSLAAFTALCGSIELVSGWCSLLQFVDRVASEQRGLERNTDGHE | not soluble
MDSLKEAEIREVFREFDKNGDGRITRQELEVALLQLGEKASNSKIETMIEQADLDGNGCIDIDEFLNVLRRQICDPKEERELRDVFNVFDKNGDGVISIDDLIFVMCQLGEKLTETEAKEMIKQGDLDHDGMIDFQEFVNIIKGQ | soluble
MDDYKRILITKILKNEVTEALGCTEVGLIGYAVSLCNISDPFSIEKIELTLNNGSFKNAYAVGVPNTKKYGILPAVVGGLLGDHKNKLLVFNGIKYSQKLEDFIKERLKIRVINSPLYCGVKIKDNSGNTFESLIKDNHLNVVIPKINNKLISEINGSEKEEYKNLELLDFLEYIDEIPEEIIQLVEKTIYTNNNLIKGDFLNFGNDCLSNMVNKTTSACNTRMIGENMPAMSVAKSGNMGIMATLPIIAYDYSNEQNQEKLIKSILLSVLVTIYATYKSSYLSSMCGCVSKGGMGAVIGLCYYKNGKNIKKLDSAARTFTANLPGIICDGGKVGCALKLASGCFAAYSSLFVDISYENGIVGKNFKECVENISEISKIMGDLDSDIVKIMSKKEI | not soluble
MSLYLCEEHFKEYFERKVARTIEKYKLASKDERILVAVSGGKDSAVTAYVLKKLGYKIECLHLNLGIGEYSEKSEIYAKKQCEFIGAPLNIIRVKELLGYGIGEVRTSRPTCSYCGLTKRYIMNKFAYDNGFDAVATGHNLDDEASFLMNNLLHWNTEYLAKGGPLLPGEGKFVKKIKPLYELTEREVVAYAIAVGLEYIVEECPYARGATTLDMKEVLNELEEKRPGTKFNFVRGFLRKKKLFEPEVKGKDLKECKICGMPASGEICSFCKFWKLGKPLTFKIKEGHHHHHH | soluble
GSAGERIYNISGNGSPLADSKEIFLTVPVGGGESLRLLASDLQRHSIAQLDPEALGNIKKLSNRLAQICSSIRTHK | soluble
MGSDKIHHHHHHMPLTRERTDMSNLLSISDLSITFDNGPRVVDGLSFSIDKGQTLALVGESGSGKSVSALSILRLLDERHAAYPAGHILYKGEDLLQAQEKRLRQIRGRHISMIFQEPMTSLNPLHTVEKQISETLELHKGMRGPQARKRCLELLELVGIPAPETRLKSYPHQLSGGQKQRVMIAMALANEPDLLIADEPTTALDVTVQKQVLELLKSLQQKLGMAVLLITHDLSIVRRYADYVVVMERGKMVEQGATETLFRSPSHTYTRKLIDAEPPEHPLPAANGTETLMTVDNVNVHFPIRKTMLGKVKESFHAVQDASFELRAGETLGIVGESGSGKTTLGHALLKLTPSTGTFSLCGTELSALSQKAFRPWRRRVQIVFQDPFGSLSPRMSVEEIIREGLEIHEPGSSGQHEARVIQALKDVGLDPDARHRYPHEFSGGQRQRIAIARALVLQPDLMILDEPTSALDRTVQKQVIELLREIQARYRLSYIFISHDLAVVRALSHKLLVLRQGRIVEYGDAETIFREPQQPYTRELLNAAFFYQSTTN | not soluble
VEPDIRTGTIQDVQHVVILMQENRSFDHYFGHLNGVRGFNDPRALKRQDGKPVWYQNYKYEFSPYHWDTKVTSAQWVSSQNHEWSAFHAIWNQGRNDKWMAVQYPEAMGYFKRGDIPYYYALADAFTLCEAYHQSMMGPTNPNRLYHMSGRAAPSGDGKDVHIGNDMGDGTIGASGTVDWTTYPERLSAAGVDWRVYQEGGYRSSSLWYLYVDAYWKYRLQEQNNYDCNALAWFRNFKNAPRDSDLWQRAMLARGVDQLRKDVQENTLPQVSWIVAPYCYCEHPWWGPSFGEYYVTRVLEALTSNPEVWARTVFILNYDEGDGFYDHASAPVPPWKDGVGLSTVSTAGEIEVSSGLPIGLGHRVPLIAISPWSKGGKVSAEVFDHTSVLRFLERRFGVVEENISPWRRAVCGDLTSLFDFQGAGDTQVAPDLTNVPQSDARKEDAYWQQFYRPSPKYWSYEPKSLPGQEKGQRPTLAVPYQLHATLALDIAAGKLRLTLGNDGMSLPGNPQGHSAAVFQVQPREVGNPRFYTVTSYPVVQESGEELGRTLNDELDDLLDANGRYAFEVHGPNGFFREFHGNLHLAAQMARPEVSVTYQRNGNLQLNIRNLGRLPCSVTVTPNPAYTREGSRRYELEPNQAISEVWLLRSSQGWYDLSVTASNTEANYLRRLAGHVETGKPSRSDPLLDI | not soluble
MESLYTSTLSEISEEEIVKGRIVSISNKDVTIDVGFKSEGIVSLLEFRDDDEIKVGDDVEVYLENIEDKMGQLILSKRKADVLRIWDKIYDSIENDTIINGKIINRVKGGMTVSLSGVEAFLPGSQIDVKPVRDFDALVGKTMDFRVVKINPVTQNIVVSHKVILEEEYAAKREEMLANIKVGMVLEGTVKNITDFGIFVDLGGLDGLVHITDITWGRINHPSEVVELDQPIKVVVVGFDENTKRVSLGMKQLEAHPWENIEIKYPVGIKATGRVVSITDYGAFVEIEKGIEGLVHISEMSWTQHIKHPSQFVSLNQEVEVVILNIDKEHTKLSLSMKRVSEDPWIALSEKYVEGSLHKGTVSNITDFGVFVELEPGVDGLVHISDLSWTKKIRHPSELVKKGQELEVKVLKFDVNARRIALGHKQINNDPWGEFEQKYAVGAECTGAISQIIEKGVIVILPGEVDGFVPVSHLLQGGVKDIHSSFKIGDELPLRVIEFDKENKRIILSALEYFKDKSKEEIEAYLQAHPNEKKEIEAASAELEPQPKGR | not soluble
EISGFGQCLVWVQCSFPNCGKWRRLCGNIDPSVLPDNWSCDQNTDVQYNRCDIPEETWTGLE | soluble
MGSDKIHHHHHHMESTRRIYASPSYEVYGLSRNPFIELASEGIEDIESIHVYQEVDMRISSLISDVIGNRSSITLSIVGPLGMGKTQRLKSIARVIEDRGGKVIYIKVDTTDVLKITRDIFASLRPPKNRTNVFLENLSRKLGFITRLEKMLSSTDEYKSRDIAEMLTRELSKYQYSALLLDELENMRGATEKEKILFFEMLRHFISNMPPGCVFAFASIPEAYEEYSSQFPAFFMRLHYEFKLRPMSYQEIIELVKKRLAKVRIRDTADPLYPFTEDAIKLIHELGKGNPRQILRLLNYVLSEAVKHKFDPINEYVVTTILEEPKSLEEYIARIPSDFKDLVKVIVEKFEGGPVSYIQIAKELKIPGMEAYEKLEHLVSLGFLVGDPRGNYKVPDYVRKFLEEKGE | not soluble
MQEISFRDDILPLKDKLFRLALRITFDRAEAEDVVQDTMIRVWNKREEWTQFGSIEAYCLTVAKNLAIDRSQKKEAQNVELTPEMEEESEISGPYDQ | not soluble
MITMLERVPTGIPGFDELCSGGLLRDRSYLVSGPSGSGKTIFAMQYLVNGIEKYNEPGVFVATEERPQHLREHFLTFGWDLEKYEDENMLAIVDATSTKIGLPSDERYIDVRPFDTRSLLDQIITIQDEIGARRAVVDSTTSIGFTISDPAKFRVELLKISTTMEILGLTSILTCEVVEGGGDKISRFGVENFVVEGTIVLYYTRIENTRVRSIEIFKMRGTNHSSKIHPFEITENGIVVYSKEEVFA | not soluble
MGSDKIHHHHHHMSQYSVTSSSVVKEKASELGFHKVGIAAVDSIDATEAQRLQAWIELGYHADMEWMANPKRQDIRLVMPEARSLVCVALNYYTPHQRPEGEEYAKISRYGWGRDYHKVMHKKLKQLSTWLESLDESVRVRYYADTGPVQDKVLAQLAGIGWIAKNGNVITREYGSWVFLGEVLTNLELESDRPHTEHCGSCTRCLQACPTSAITQPFIVDANRCIAYHTIENRDEKLPQTLTSHLQGWVAGCDICQDVCPWNQRFASTTDIPEFQPYPGNIAPKLLELAQISDQEWNKRFPASALRRIKPEMLRRNALANLDASRQIMTPKVIIFDFDGTIADTVDALVSIANRLAVDFGYRHISPEQLSLLKNLTSREIIKYSGVSLFKIPFLVKKVKGELKNKIPELKPIPGIKEALIELQNKGYKLGIITSNSKDNVTQFLTINDLNHLFDFIYSGITIFGKTTIINNVLRQNQLQPQEVIYVGDETRDIEASKKANIQVIAVAWGFNSSEVLAKQNPDYLIQQPSELLEVMNGY | not soluble
MDYDVLILGGGIIGCSVAYELSKYNLNIALIEKDFDIADDVSFVNTAIVYDGSECKDNLMSYLENMGNMMLPEITKKLNVPFKRVGHLTIADNDETVRIIEENYKRAKSRGINNIYLIDEKRAREIEPNYKGEIKKAMYSENIAVTSPYDLAIGFAEIAYDNGVSFRLEEIVLDIQSIAKGFKVTTNKNKFTCRFVINTTPGEHYTIDQDKDYEQKNALKTYYLLLNDEIKEKTSNIVVKLKNEEEFIIQKNTVNGDTLIGINSNNSLGFMKSLKIAKEMINSISRKHVKDIFYDNHNQDRLIIDDSRKNKGYIKVMGNHYGEVTIAPAVSKIICDEIIDKLNCSLNKNFVDKRREFYRFRELSNEERNELISLDKRYGKIVCLCNGISEGEIVDCIRRPLGARTVEGVKRRTGATFGTCHGAYCISKIINILARELEKKPTEIVEDSKNSKVLASRIKEFDRVLEHHHHHH | not soluble
AEFKHVFVCVQDRPPGHPQGSCAQRGSREVFQAFMEKIQTDPQLFMTTVITPTGSMNACMMGPVVVVYPDGVWYGQVKPEDVDEIVEKHLKGGEPVERLVISKGKPPGMF | soluble
NAELAKSGIEVKNDVCEHFAYSRQELFHLIRIEEIKTFDELLEKYGKGYGCEVCKPLAGSILASCWGEHILKPQLVKLHDTNDNFLGNIQKDGTYSVIPRMAGGEVTPQALGALANVAAEYNLYTKVTGAQRIGLFGAQKDDLPEIWRKLIDAGFETGQAYAKALRMAKTCVGSTWCRYGVQDSVGLGSYIENRYKGIRTPHKMKFGVSGCTRECAEAQGKDLGIIATDAGWNMYVCGNGGMKPRHADLLASDLDKETLIKYIDRFMMFYIRTAAPLQRTSVWMENMEGGVDYLRAVIVEDKLGINAQLEADVAKLVDEYECEWTATINDASQLTRFAHFINSDKRDDNVVFVQEREQHRPATFTEKHPEAKGDILHVAITEA | not soluble
